Laboratory results: patent US20110311550A1 (Scripps Research, published 2011)

Legend:
[1] = target: T1, vaccinia-expressed E1E2 complex, isolate HCV-1 (genotype 1a) (hepatitis C virus, isolate HCV-1, UniProt P26664 192-383; P26664 384-746); experiment: competition ELISA on HCV-1 E1E2; competitor m2 (AR1B)
[2] = target: T2, E1E2 complex of HCV isolate H77 (genotype 1a), wild type (HCV isolate H77, UniProt P27958 192-383; P27958 384-746); experiment: competition ELISA on H77 E1E2; competitor m42 (Fab P1)
[3] = target: T1, vaccinia-expressed E1E2 complex, …; experiment: competition ELISA on HCV-1 E1E2; competitor m3 (AR2A)
[4] = target: T2, E1E2 complex of HCV isolate H77 …; experiment: competition ELISA on H77 E1E2; competitor m45 (Fab P3)
[5] = target: T2, E1E2 complex of HCV isolate H77 …; experiment: competition ELISA on H77 E1E2; competitor m37 (Fab N1)
[6] = target: T1, vaccinia-expressed E1E2 complex, …; experiment: competition ELISA on HCV-1 E1E2; competitor m20 (CBH-2)
[7] = target: T1, vaccinia-expressed E1E2 complex, …; experiment: competition ELISA on HCV-1 E1E2; competitor m32 (AP320)
[8] = target: T1, vaccinia-expressed E1E2 complex, …; experiment: competition ELISA on HCV-1 E1E2; competitor m25 (9/27)
[9] = target: T1, vaccinia-expressed E1E2 complex, …; experiment: competition ELISA on HCV-1 E1E2; competitor m36 (A4)
[10] = target: T1, vaccinia-expressed E1E2 complex, …; experiment: competition ELISA on HCV-1 E1E2; competitor m27 (3/11)
[11] = target: T2, E1E2 complex of HCV isolate H77 …; experiment: competition ELISA on H77 E1E2; competitor m38 (Fab N2)
[12] = target: T1, vaccinia-expressed E1E2 complex, …; experiment: competition ELISA on HCV-1 E1E2; competitor m22 (CBH-7)
[13] = target: T1, vaccinia-expressed E1E2 complex, …; experiment: competition ELISA on HCV-1 E1E2; competitor m4 (AR3A)
[14] = target: T1, vaccinia-expressed E1E2 complex, …; experiment: competition ELISA on HCV-1 E1E2; competitor m29 (2/69A)
[15] = target: T1, vaccinia-expressed E1E2 complex, …; experiment: competition ELISA on HCV-1 E1E2; competitor m5 (AR3B)
[16] = target: T2, E1E2 complex of HCV isolate H77 …; experiment: competition ELISA on H77 E1E2; competitor m43 (Fab P1a)
[17] = target: T1, vaccinia-expressed E1E2 complex, …; experiment: competition ELISA on HCV-1 E1E2; competitor m7 (AR3D)
[18] = target: T1, vaccinia-expressed E1E2 complex, …; experiment: competition ELISA on HCV-1 E1E2; competitor m26 (AP33)
[19] = target: T1, vaccinia-expressed E1E2 complex, …; experiment: competition ELISA on HCV-1 E1E2; competitor m23 (H53)
[20] = target: T2, E1E2 complex of HCV isolate H77 …; experiment: competition ELISA on H77 E1E2; competitor m39 (Fab N3)
[21] = target: T1, vaccinia-expressed E1E2 complex, …; experiment: competition ELISA on HCV-1 E1E2; competitor m24 (7/59)

Binder	% residual binding [1]	% residual binding [2]	% residual binding [3]	% residual binding [4]	% residual binding [5]	% residual binding [6]	% residual binding [7]	% residual binding [8]	% residual binding [9]	% residual binding [10]	% residual binding [11]	% residual binding [12]	% residual binding [13]	% residual binding [14]	% residual binding [15]	% residual binding [16]	% residual binding [17]	% residual binding [18]	% residual binding [19]	% residual binding [20]	other results
MAb AR3D (antibody, V domains shown, also called IgG1 of Fab L4) VH: LEQSGAEVKKPGSSVKVSCKASGDTFRSYVITWARQAPGQGLEWMGAIIPFFGTTNLAQKFQGRVTITADESTKTVYMDLSSLRSDDTAVYYCAKAGDLSVGGVLAGGVPHLRHFDPWGQGTLVTVSS VL: ELTQSPGTLSLSPGERATLSCRAGQTVASNSLAWYQHKPGQAPRLLIYGASIRASGIPDRFSGSGSGTDFTLTISRLEPEDFAVYYCQQYGLSSTFGQGTRLEIKR	92%	145%	75%	118%	131%	51%	77%	49%	90%	37%	98%	33%	13%	56%	15%	138%	14%	27%	74%		
MAb AR2A (antibody, V domains shown, also called IgG1 of Fab G) VH: LEQSGAEMKKPGASLKVSCKTSGYTFDDYGVTWVRQAPGQGLEWMGWISAYSGNTFYARKFQGRVTMTTDPSTRTAYMELRSLRSDDTAVYFCARDRGLAINGVVFPYFGLDVWGQGTTVTVSS VL: ELTQSPVSLPVTPGEPASISCRSSQSLLHSNGNHYLDWYLQKPGQSPQLLMYLGSNRASGVPDRFSGSGSGTDFTLKISRVEAEDVGVYYCMQGLQTPWTFGQGTKVEIKR	57%	82%	15%	72%	85%	93%	70%	67%	92%	94%	86%	17%	76%	82%	92%	82%	75%	63%	107%	69%	% residual binding [21]: 99%
MAb AR1B (antibody, V domains shown, also called IgG1 of Fab D1) VH: LESGGGLVQPGGSLRLSCEASGYYFSSFAMSWVRQTPGKGLEWVSSIAGGTLGRTSYRDSVKGRFTISRDNSKNTVFLHMNNLRPEDTAVYYCAKDPLLFAGGPNWFDHWGQGTLVTVSS VL: not shown	6%	97%	89%	93%	95%	98%	83%	70%	103%	61%	100%	20%	76%	85%	80%	100%	84%	69%	12%	92%	% residual binding [21]: 77%
MAb AR1A (antibody, V domains shown, also called IgG1 of Fab B2) VH: LEQSGAEVKKPGSSVKVSCRASGSPYSSYTITWVRQAPGQGLEWMGGIILMTGKANYAQKFQGRVTITADRATATAYMEMSSLTSDDTAIYYCARDPYVYAGDDVRSLSRWGQGTPVIVSS VL: not shown	15%	86%	100%	85%	83%	83%	84%	74%	97%	66%	82%	16%	44%	86%	53%	88%	54%	102%	20%	71%	% residual binding [21]: 70%
MAb AR3C (antibody, V domains shown, also called IgG1 of Fab H3) VH: LEQSGAEVKKPGSSVKVSCETSGGTLDNYALNWVRQAPGQGLEWIGGVVPLFGTTRNAQKFQGRVTISDDKSTGTGHMELRSLRSEDTAVYYCVRSVTPRYCGGGFCYGEFDYWGQGTLVTVSS VL: ELTQSPATLSVSPGERATLSCRASQSVSSNLAWYQQKPGQAPRLLIYGASTRATGIPARFSGSGSGTEFTLTVSRLEPEDSAVYFCQQYYRSPLTFGGGTKVEIKR	91%	131%	83%	124%	146%	65%	81%	62%	93%	44%	116%	39%	9%	68%	12%	145%	12%	33%	77%	92%	% residual binding [21]: 95%
